# According to patent US20260193317A1, “COMBINATION THERAPY WITH ACTRIIB RECEPTOR VARIANTS AND GLP-1 AGONISTS” (35PHARMA Inc., priority 2023, published 2026):
# Columns and labels:
# [1] = SEC-HPLC monomer and HMW content of purified fusion proteins; type: physicochemical; settings: after Protein A purification
# From the text: Given that protein aggregation can be indicative of reduced conformational stability and decreased activity, Size-Exclusion Chromatography-High Performance Liquid Chromatography (SEC-HPLC) was used to determine the purity of each ActRIIB-ECD construct. This method measured the percentage of intact monomeric species as well as the presence of aggregates and/or degradation products.
# All proteins expressed efficiently in CHO and/or 293 cells and purification efficiency of each using Protein A affinity chromatography was similar.
# [2] = Skeletal muscle mass and Mss51 expression in lean mice; type: in vivo; settings: 25 mg/kg twice weekly, seven days
# Experimental: The effects of P1229 on body composition and metabolism in lean mice were further assessed.
# Additional assays were performed to assess the relative expression level of Mss51, a skeletal muscle-specific gene. Mss51 is a key target of myostatin signaling, with a role in fatty acid oxidation, glycolysis, and oxidative phosphorylation.
# [3] = tested on: diet-induced obese (DIO) mice; experiment: Body composition and metabolism in diet-induced obese (DIO) mice; type: in vivo; settings: 3 weeks s.c., P75, P1229 25 mg/kg twice weekly, P1373 5, 20, 50 mg/kg twice weekly, P1307 20 mg/kg weekly
# Experimental: Experiments were performed to assess the effects of P1229 on body composition and metabolism in diet-induced obese (DIO) mice. DIO mice were purchased from Jackson Laboratories (#380050). Briefly, mice were fed a high-fat diet (HFD, 60% kcal from fat) from 6 weeks of age until 22 weeks of age (total of 16 weeks on the HFD). […] After 3 weeks of treatments, some animals were sacrificed and scanned by EchoMRI […] (FIGS. 11A-F), while others were sacrificed for tissue collection and RNA analysis. Animals were maintained on the HFD throughout the acclimatization and treatment periods. The murine version of bimagrumab used for these experiments comprises the heavy chain amino acid sequence of SEQ ID NO: 376 and the light chain sequence of SEQ ID NO: 377.
# [4] = Single-injection body weight gain in wild-type mice; type: in vivo; settings: single 25 mg/kg subcutaneous injection, after 4 days, vs vehicle
# Experimental: To investigate the target engagement of exemplary ActRIIB-ECD polypeptide constructs in vivo, mice (n=6/group) were injected with given agents (25 mg/kg, subcutaneous injection), and sacrificed after 4 days to assess body weight gain.
# [5] = biological target: GDF-11 (UniProt O95390 299-407); experiment: cell-based or functional assay
# [6] = biological target: T1, activin B (UniProt P09529 293-407); experiment: cell-based or functional assay
# T1 sequence (looked up): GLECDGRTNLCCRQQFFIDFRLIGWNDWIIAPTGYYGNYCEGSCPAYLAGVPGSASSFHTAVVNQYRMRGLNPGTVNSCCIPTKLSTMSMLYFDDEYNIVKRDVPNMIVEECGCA
# [7] = biological target: T2, recombinant human activin A (human, UniProt P08476 311-426); experiment: cell-based or functional assay
# T2 sequence (looked up): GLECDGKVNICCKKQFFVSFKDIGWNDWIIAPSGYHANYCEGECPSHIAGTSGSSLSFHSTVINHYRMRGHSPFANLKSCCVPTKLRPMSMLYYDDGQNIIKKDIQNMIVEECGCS
# [8] = biological target: GDF-8 (UniProt O14793 267-375); experiment: cell-based or functional assay
# [9] = biological target: T3, BMP-9 (UniProt Q9UK05 320-429); experiment: cell-based or functional assay
# T3 sequence (looked up): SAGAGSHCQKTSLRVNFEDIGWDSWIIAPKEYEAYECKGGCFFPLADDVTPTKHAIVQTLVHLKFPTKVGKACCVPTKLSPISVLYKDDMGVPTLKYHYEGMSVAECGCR
# [10] = biological target: T4, BMP-10 (UniProt O95393 317-424); experiment: cell-based or functional assay
# T4 sequence (looked up): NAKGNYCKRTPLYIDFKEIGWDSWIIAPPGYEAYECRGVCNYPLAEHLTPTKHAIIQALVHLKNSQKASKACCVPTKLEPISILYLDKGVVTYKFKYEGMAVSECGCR
# [11] = tested on: TGFβ superfamily ligands; experiment: Neutralization profile across TGFβ superfamily ligands (HEK293 and HepG2 reporter assays, summary); type: cell-based, human
# Experimental: Potency testing by neutralization on cell-based assays. Characterization of the activin A, activin B, GDF-8, and GDF-11 inhibition potency (IC50) of the fusion proteins was performed using a cell-based reporter assay. TGFβ-reporter HEK293 cells were obtained from InvivoGen (San Diego, CA, cat. no. hkb-tgfb) and were maintained following the manufacturer's instructions. Briefly, cells were grown in high-glucose DMEM, containing 10% heat-inactivated FBS, 30 μg/mL blasticidin, 250 μg/mL hygromycin B, and 100 μg/mL zeocin (hereafter, “growth medium”). Once the cells reached 70-80% confluence, they were detached in growth medium by gently tapping on the flask. For all assays, cells were seeded in 96-well plates at a density of 20,000 cells per well in growth medium. Cells were left to attach for 10 minutes at room temperature (RT) prior to being transferred to a 37° C. incubator (5% CO2) overnight. The next day, treatments were prepared by combining the appropriate concentration of agent with activin A, activin B, GDF-8, or GDF-11 for 30 min at RT (shaking at 150 rpm). Treatments were conducted in high-glucose DMEM (serum-free and with no selection agents), and the final concentration of cytokine (ligand) was 0.3 nM. Growth medium was removed from the culture plates, and cells were treated with the appropriate mixes of fusion protein and cytokine. Treatment duration was for 18-22 h at 37° C. (5% CO2). All treatments were performed in technical duplicates and at least one or two independent experiments were conducted for each cytokine. At the end of the treatment period, supernatants were transferred to a new plate, and centrifuged at 300 RPM for 3 min. Forty microlitres of supernatant from each condition was transferred to a new plate, into which 180 μL of Quanti-Blue reagent (InvivoGen, cat. no. rep-qbs) was added. Quanti-Blue reagent was prepared following the manufacturer's instructions. Samples were incubated for 45 min at 37° C. At the end of the incubation, absorbance was read at 650 nm. The data were plotted in GraphPad Prism, which was used to calculate IC50 values as a non-linear regression.
# Characterization of the BMP-9 and BMP-10 inhibition potency (IC50) of the fusion proteins was performed using a second cell-based reporter assay. Human hepatic HepG2 cells were transfected with a SEAP-encoding plasmid, in which SEAP expression is under the control of the murine Id1 promoter. A stable pool was generated from this transfection. Cells were grown in EMEM, containing 10% heat-inactivated FBS and 200 μg/mL zeocin (hereafter, “HepG2 growth medium”). […] For all assays, cells were seeded in 96-well plates at a confluence of 100,000 cells per well in HepG2 growth medium. Cells were left to attach for 10 minutes at RT prior to being transferred to a 37° C. incubator (5% CO2) overnight. The next day, treatments were prepared in EMEM (2.5% heat-inactivated FBS and with no selection agents) by combining the appropriate concentration of agent with BMP-9 or BMP-10 for 30 min at RT (shaking at 150 rpm). Treatments were conducted in EMEM (2.5% heat-inactivated FBS and with no selection agents), and the final concentration of BMP-9 and BMP-10 was 2 ng/mL and 40 ng/mL, respectively. HepG2 growth medium was removed from the culture plates, and cells were treated with the appropriate mixes of fusion protein and cytokine. Treatment duration was for 20-24 h at 37° C. (5% CO2). […]
# [12] = biological target: T5, BMP-9 (Homo sapiens, UniProt Q9UK05); experiment: Small-scale BMP-9 ELISA with CHO supernatants; type: binding; settings: BMP-9 10 ng/mL
# T5 sequence (Q9UK05 320-429): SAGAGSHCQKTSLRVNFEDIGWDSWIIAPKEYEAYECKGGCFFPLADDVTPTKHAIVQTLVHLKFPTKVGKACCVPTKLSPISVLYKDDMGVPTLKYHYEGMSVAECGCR
# Experimental: Small-scale testing of ActRIIB-ECD fusion proteins. Additional investigation of a series of exemplary agents was performed using proteins expressed in CHO cells. Briefly, DNA encoding the ActRIIB-ECD-Fc fusion constructs was transfected in cells seeded in 12-well plates in a final volume of 1 ml. After 7 days, the supernatant was harvested, clarified, and the amount of expressed protein in each well was quantified using standard methods. The potency of each agent for inhibition of activin A, BMP-9 and BMP-10 was determined in three separate assays.
# The next day, the plate was washed three times. […] Expressed proteins in the supernatants were diluted 1 in 2 in assay diluent (0.5% BSA, 0.05% tween-20 in PBS) and 100 μl was added to the 96-well plate in technical duplicates. After a 1.5-hour incubation at RT, the plate was washed three times. […] In this assay, a loss of signal indicates less binding of the exemplary agent to BMP-9. Results are expressed as a % of the signal obtained with wild-type ActRIIB-Fc (P75).
# Sequence of GDF-11 (O95390 299-407 limits assumed): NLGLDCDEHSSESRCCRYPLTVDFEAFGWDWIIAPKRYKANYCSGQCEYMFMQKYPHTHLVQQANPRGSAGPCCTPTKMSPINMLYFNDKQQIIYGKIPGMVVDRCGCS
Molecule,high molecular weight (HMW) content (SEC-HPLC) [1] [%],monomer content (SEC-HPLC) [1] [%],tibialis anterior and gastrocnemius weight [2],fat mass and lean mass (EchoMRI) [3],body weight gain [4],GDF-11 IC50; TGFβ-reporter HEK293 cells [5] [nM],Activin B IC50; TGFβ-reporter HEK293 cells [6] [nM],Activin A IC50; TGFβ-reporter HEK293 cells [7] [nM],GDF-8 IC50; TGFβ-reporter HEK293 cells [8] [nM],BMP-9 IC50; BMP-reporter HepG2 cells [9] [nM],BMP-10 IC50; BMP-reporter HepG2 cells [10] [nM],"impact of modifications in the Fc sequence on activin A, activin B, GDF-8, and GDF-11 potency ([11]; all ligands)",impact of modifications in the Fc sequence on BMP-9 and BMP-10 potency ([11]; both ligands),"BMP-9 binding, ELISA signal relative to P75 [12]"
P75: human wild type ActRIIB-ECD linked to human IgG1 Fc domain by a triple glycine linker; SEQ ID NO: 171; benchmark [reference compound],16,84,significantly increased,promoted lean mass gain but less fat loss,statistically significant body weight gain,,,,,,,,,
P1375 (Fc fusion) ETRECIYYNANWELERTNQSGLERCEGEQDKRWHCYASWRNSSGTIELVKKGCWLDDFNCYDRQECVATEENPQVYFCCCEGNFCNERFTHLPEAGGPEVTYEPPPTGGGGSGGGGSGGGGSGGGGTHTCPPCPAPELLGGPSVFLFPPKPKDTLYITREPEVTCVVVDVSHEDPEVKFNWYVDGVEVHNAKTKPREEQYNSTYRVVSVLTVLHQDWLNGKEYKCKVSNKALPAPIEKTISKAKGQPREPQVYTLPPSRDELTKNQVSLTCLVKGFYPSDIAVEWESNGQPENNYKTTPPVLDSDGSFFLYSKLTVDKSRWQQGNVFSCSVMHEALHNHYTQKSLSLSPG,,,,,,0.39,2,0.53,0.33,> 1000,> 100,,,
"P1375: hActRIIB L33W, 19 aa linker, IgG1 YTE-DL Fc; SEQ ID 234 (protein) ETRECIYYNANWELERTNQSGLERCEGEQDKRWHCYASWRNSSGTIELVKKGCWLDDFNCYDRQECVATEENPQVYFCCCEGNFCNERFTHLPEAGGPEVTYEPPPTGGGGSGGGGSGGGGSGGGGTHTCPPCPAPELLGGPSVFLFPPKPKDTLYITREPEVTCVVVDVSHEDPEVKFNWYVDGVEVHNAKTKPREEQYNSTYRVVSVLTVLHQDWLNGKEYKCKVSNKALPAPIEKTISKAKGQPREPQVYTLPPSRDELTKNQVSLTCLVKGFYPSDIAVEWESNGQPENNYKTTPPVLDSDGSFFLYSKLTVDKSRWQQGNVFSCSVMHEALHNHYTQKSLSLSPG",0,99,,,,,,,,,,comparable to P1373,comparable to P1373,near-undetectable binding to BMP-9
